# Reference: the MegaScale stability set (Tsuboyama et al. 2023)
# B1: EHEE_rd2_0601 (parent)
# chain: TYTYKLTDEEASRRAEDEWRNRGYDVRVRNNNGTWEVEVR
# Variants of: B1
# Experiment: folding stability dG (cDNA display proteolysis); higher = more stable
# Details: PBS, room temperature
row,Variant,folding stability dG [kcal/mol]
1,TYTYKLTDEEASRRAEDEWRNRGYDVRVCNNNGTWEVEVR [R29C],1.06
2,TYTYKLTDEEASRRAEDEWRNRGYDVRVDNNNGTWEVEVR [R29D],0.413
3,TYTYKLTDEEASRRAEDEWRNRGYDVRVGNNNGTWEVEVR [R29G],0.418
4,TYTYKLTDEEASRRAEDEWRNRGYDVRVHNNNGTWEVEVR [R29H],1.49
5,TYTYKLTDEEASRRAEDEWRNRGYDVRVFNNNGTWEVEVR [R29F],1.63
6,TYTYKLTDEEASRRAEDEWRNRGYDVRVENNNGTWEVEVR [R29E],0.726
7,TYTYKLTDEEASRRAEDEWRNRGYDVRVANNNGTWEVEVR [R29A],0.917
8,TYTYKLTDEEASRRAEDEWRNRGYDVRVLNNNGTWEVEVR [R29L],1.4
9,TYTYKLTDEEASRRAEDEWRNRGYDVRVINNNGTWEVEVR [R29I],1.78
10,TYTYKLTDEEASRRAEDEWRNRGYDVRVKNNNGTWEVEVR [R29K],1.35
11,TYTYKLTDEEASRRAEDEWRNRMYDVRVRNNNGTWEVEVR [G23M],-0.97
12,TYTYKLTDEEASRRAEDEWRNRCYDVRVRNNNGTWEVEVR [G23C],1.14
13,TYTYKLTDEEASRRAEDEWRNRWYDVRVRNNNGTWEVEVR [G23W],-0.693
14,TYTYKLTDEEASRRAEDEWRNRHYDVRVRNNNGTWEVEVR [G23H],-0.048
15,TYTYKLTDEEASRRAEDEWRNRQYDVRVRNNNGTWEVEVR [G23Q],-0.624
16,TYTYKLTDEEASRRAEDEWRNRFYDVRVRNNNGTWEVEVR [G23F],-0.542
17,TYTYKLTDEEASRRAEDEWRNRKYDVRVRNNNGTWEVEVR [G23K],-0.509
18,TYTYKLTDEEASRRAEDEWRNRYYDVRVRNNNGTWEVEVR [G23Y],-0.588
19,TYTYKLTDEEASRRAEDEWRNRNYDVRVRNNNGTWEVEVR [G23N],-0.169
20,TYTYKLTDEEASRRAEDEWRNRGYDPRVRNNNGTWEVEVR [V26P],-0.384
21,TYTYKLTDEEASRRAEDEWRNRGYDFRVRNNNGTWEVEVR [V26F],-0.688
22,TYTYKLTDEEASRRAEDEWRNRGYDIRVRNNNGTWEVEVR [V26I],0.319
23,TYTYKLTDEEASRRAEDEWRNRGYDTRVRNNNGTWEVEVR [V26T],0.439
24,TYTYKLTDEEASRRAEDEWRNRGYDARVRNNNGTWEVEVR [V26A],0.393
25,TYTYKLTDEEASRRAEDEWRNRGLDVRVRNNNGTWEVEVR [Y24L],0.28

row,Variant,folding stability dG [kcal/mol]
1,TYTYKLTDEEASRRAEDEWRNRGWDVRVRNNNGTWEVEVR [Y24W],0.791
2,TYTYKLTDEEASRRAEDEWRNRGQDVRVRNNNGTWEVEVR [Y24Q],-0.84
3,TYTYKLTDEEASRRAEDEWRNRGFDVRVRNNNGTWEVEVR [Y24F],1.51
4,TYTYKLTDEEASRRAEDEWRNRGIDVRVRNNNGTWEVEVR [Y24I],-0.012
5,TYTYKLTDEEASRRAEDEWRNRGKDVRVRNNNGTWEVEVR [Y24K],-0.577
6,TYTYKLTDEEASRRAEDEWRNRGRDVRVRNNNGTWEVEVR [Y24R],-0.49
7,TYTYKLTDEEASRRAEDEWRNRGNDVRVRNNNGTWEVEVR [Y24N],-0.731
8,TYTYKLTDEEASRRAEDEWRNRGHDVRVRNNNGTWEVEVR [Y24H],0.447
9,TYTYKLTDEEASRRAEDEWRNRGTDVRVRNNNGTWEVEVR [Y24T],-0.625
10,TYTYKLTDEEASRRAEDEWRNRGMDVRVRNNNGTWEVEVR [Y24M],0.281
11,TYTYKLTDEEASRRAEDEWRNRGADVRVRNNNGTWEVEVR [Y24A],0.049
12,TYTYKLTDEEASRRAEDEWRNRGVDVRVRNNNGTWEVEVR [Y24V],0.003
13,TYTYKLTDEEASRRAEDEWRNRGCDVRVRNNNGTWEVEVR [Y24C],1.21
14,TYTYKLTDEEASRRAEDEWRVRGYDVRVRNNNGTWEVEVR [N21V],1.1
15,TYTYKLTDEEASRRAEDEWRQRGYDVRVRNNNGTWEVEVR [N21Q],1.65
16,TYTYKLTDEEASRRAEDEWRFRGYDVRVRNNNGTWEVEVR [N21F],1.04
17,TYTYKLTDEEASRRAEDEWRRRGYDVRVRNNNGTWEVEVR [N21R],1.96
18,TYTYKLTDEEASRRAEDEWRSRGYDVRVRNNNGTWEVEVR [N21S],1.82
19,TYTYKLTDEEASRRAEDEWRTRGYDVRVRNNNGTWEVEVR [N21T],1.31
20,TYTYKLTDEEASRRAEDEWRYRGYDVRVRNNNGTWEVEVR [N21Y],0.831
21,TYTYKLTDEEASRRAEDEWRGRGYDVRVRNNNGTWEVEVR [N21G],1.42
22,TYTYKLTDEEASRRAEDEWRERGYDVRVRNNNGTWEVEVR [N21E],1.34
23,TYTYKLTDEEASRRAEDEWRWRGYDVRVRNNNGTWEVEVR [N21W],0.672
24,TYTYKLTDEEASRRAEDEWRIRGYDVRVRNNNGTWEVEVR [N21I],1.22
25,TYTYKLTDEEASRRAEDEWRLRGYDVRVRNNNGTWEVEVR [N21L],1.65

row,Variant,folding stability dG [kcal/mol]
1,TYTYKLTDEEASRRAEDEWRKRGYDVRVRNNNGTWEVEVR [N21K],1.97
2,TYTYKLTDEEASRRAEDEWRHRGYDVRVRNNNGTWEVEVR [N21H],1.24
3,TYTYKLTDEEASRRAEDEWRMRGYDVRVRNNNGTWEVEVR [N21M],1.58
4,TYTYKLTDEEASRRAEDEWRNNGYDVRVRNNNGTWEVEVR [R22N],0.518
5,TYTYKLTDEEASRRAEDEWRNEGYDVRVRNNNGTWEVEVR [R22E],0.251
6,TYTYKLTDEEASRRAEDEWRNCGYDVRVRNNNGTWEVEVR [R22C],1.03
7,TYTYKLTDEEASRRAEDEWRNAGYDVRVRNNNGTWEVEVR [R22A],1.22
8,TYTYKLTDEEASRRAEDEWRNFGYDVRVRNNNGTWEVEVR [R22F],0.44
9,TYTYKLTDEEASRRAEDEWRNKGYDVRVRNNNGTWEVEVR [R22K],1.45
10,TYTYKLTDEEASRRAEDEWRNWGYDVRVRNNNGTWEVEVR [R22W],0.762
11,TYTYKLTDEEASRRAEDEWRNDGYDVRVRNNNGTWEVEVR [R22D],-0.181
12,TYTYKLTDEEASRRAEDEWRNMGYDVRVRNNNGTWEVEVR [R22M],1.29
13,TYTYKLTDEEASRRAEDEWRNYGYDVRVRNNNGTWEVEVR [R22Y],0.488
14,TYTYKLTDEEASRRAEDEWRNQGYDVRVRNNNGTWEVEVR [R22Q],0.939
15,TYTYKLTDEEASRRAEDEWRNSGYDVRVRNNNGTWEVEVR [R22S],0.439
16,TYTYKLTDEEASRRAEDEWRNLGYDVRVRNNNGTWEVEVR [R22L],1.46
17,TYTYKLTDEEASRRAEDEWRNGGYDVRVRNNNGTWEVEVR [R22G],0.192
18,TYTYKLTDEEASRRAEDEWRNHGYDVRVRNNNGTWEVEVR [R22H],0.666
19,TYTYKLTDEEASRRAEDEWRNVGYDVRVRNNNGTWEVEVR [R22V],-0.052
20,TYTYKLTDEEASRRAEDEWRNTGYDVRVRNNNGTWEVEVR [R22T],-0.242
21,TYTYKLTDEEASRRAEDEWRNIGYDVRVRNNNGTWEVEVR [R22I],0.421
22,TYTYKLTDEEASRRAEDEWRNRGYLVRVRNNNGTWEVEVR [D25L],1.48
23,TYTYKLTDEEASRRAEDEWRNRGYQVRVRNNNGTWEVEVR [D25Q],1.64
24,TYTYKLTDEEASRRAEDEWRNRGYNVRVRNNNGTWEVEVR [D25N],1.3
25,TYTYKLTDEEASRRAEDEWRNRGYFVRVRNNNGTWEVEVR [D25F],1.35

row,Variant,folding stability dG [kcal/mol]
1,TYTYKLTDEEASRRAEDEWRNRGYIVRVRNNNGTWEVEVR [D25I],1.76
2,TYTYKLTDEEASRRAEDEWRNRGYTVRVRNNNGTWEVEVR [D25T],1.46
3,TYTYKLTDEEASRRAEDEWRNRGYRVRVRNNNGTWEVEVR [D25R],1.23
4,TYTYKLTDEEASRRAEDEWRNRGYVVRVRNNNGTWEVEVR [D25V],1.52
5,TYTYKLTDEEASRRAEDEWRNRGYSVRVRNNNGTWEVEVR [D25S],1.3
6,TYTYKLTDEEASRRAEDEWRNRGYYVRVRNNNGTWEVEVR [D25Y],1.27
7,TYTYKLTDEEASRRAEDEWRNRGYEVRVRNNNGTWEVEVR [D25E],1.82
8,TYTYKLTDEEASRRAEDEWRNRGYAVRVRNNNGTWEVEVR [D25A],1.25
9,TYTYKLTDEEASRRAEDEWRNRGYMVRVRNNNGTWEVEVR [D25M],1.36
10,TYTYKLTDEEASRRAEDEWRNRGYKVRVRNNNGTWEVEVR [D25K],1.16
11,TYTYKLTDEEASRRAEDEWRNRGYPVRVRNNNGTWEVEVR [D25P],0.219
12,TYTYKLTDEEASRRAEDEWRNRGYGVRVRNNNGTWEVEVR [D25G],0.602
13,TYTYKLTDEEASRRAEDEWRNRGYWVRVRNNNGTWEVEVR [D25W],1.53
14,TYTYKLTDEEASRRAEDEWRNRGYHVRVRNNNGTWEVEVR [D25H],1.56
15,TYTYKLTDEEASRRAEDEWRNRGYDVLVRNNNGTWEVEVR [R27L],1.68
16,TYTYKLTDEEASRRAEDEWRNRGYDVQVRNNNGTWEVEVR [R27Q],1.56
17,TYTYKLTDEEASRRAEDEWRNRGYDVYVRNNNGTWEVEVR [R27Y],1.52
18,TYTYKLTDEEASRRAEDEWRNRGYDVWVRNNNGTWEVEVR [R27W],1.27
19,TYTYKLTDEEASRRAEDEWRNRGYDVDVRNNNGTWEVEVR [R27D],1.07
20,TYTYKLTDEEASRRAEDEWRNRGYDVIVRNNNGTWEVEVR [R27I],2.09
21,TYTYKLTDEEASRRAEDEWRNRGYDVNVRNNNGTWEVEVR [R27N],1.36
22,TYTYKLTDEEASRRAEDEWRNRGYDVFVRNNNGTWEVEVR [R27F],1.67
23,TYTYKLTDEEASRRAEDEWRNRGYDVTVRNNNGTWEVEVR [R27T],2.03
24,TYTYKLTDEEASRRAEDEWRNRGYDVVVRNNNGTWEVEVR [R27V],2.05
25,TYTYKLTDEEASRRAEDEWRNRGYDVGVRNNNGTWEVEVR [R27G],0.575

row,Variant,folding stability dG [kcal/mol]
1,TYTYKLTDEEASRRAEDEWRNRGYDVKVRNNNGTWEVEVR [R27K],1.6
2,TYTYKLTDEEASRRAEDEWRNRGYDVHVRNNNGTWEVEVR [R27H],1.56
3,TYTYKLTDEEASRRAEDEWRNRGYDVCVRNNNGTWEVEVR [R27C],1.69
4,TYTYKLTDEEASRRAEDEWRNRGYDVEVRNNNGTWEVEVR [R27E],1.6
5,TYTYKLTDEEASRRAEDEWRNRGYDVPVRNNNGTWEVEVR [R27P],-0.472
6,TYTYKLTDEEASRRAEDEWRNRGYDVAVRNNNGTWEVEVR [R27A],1.42
7,TYTYKLTDEEASRRAEDEWRNRGYDVMVRNNNGTWEVEVR [R27M],1.49
8,TYTYKLTDEEASRRAEDEWRNRGYDVSVRNNNGTWEVEVR [R27S],1.69
9,TYTYKLTDEEASRRAEDEWRNRGYDVRDRNNNGTWEVEVR [V28D],-0.612
10,TYTYKLTDEEASRRAEDEWRNRGYDVRGRNNNGTWEVEVR [V28G],-0.651
11,TYTYKLTDEEASRRAEDEWRNRGYDVRYRNNNGTWEVEVR [V28Y],0.207
12,TYTYKLTDEEASRRAEDEWRNRGYDVRARNNNGTWEVEVR [V28A],0.322
13,TYTYKLTDEEASRRAEDEWRNRGYDVRTRNNNGTWEVEVR [V28T],0.683
14,TYTYKLTDEEASRRAEDEWRNRGYDVRQRNNNGTWEVEVR [V28Q],-0.695
15,TYTYKLTDEEASRRAEDEWRNRGYDVRLRNNNGTWEVEVR [V28L],0.62
16,TYTYKLTDEEASRRAEDEWRNRGYDVRFRNNNGTWEVEVR [V28F],0.162
17,TYTYKLTDEEASRRAEDEWRNRGYDVRMRNNNGTWEVEVR [V28M],0.531
18,TYTYKLTDEEASRRAEDEWRNRGYDVRCRNNNGTWEVEVR [V28C],0.766
19,TYTYKLTDEEASRRAEDEWRNRGYDVRSRNNNGTWEVEVR [V28S],0.536
20,TYTYKLTDEEASRRAEDEWRNRGYDVRIRNNNGTWEVEVR [V28I],1.44
21,TYTYKLTDEEASRRAEDEWRNRGYDVRKRNNNGTWEVEVR [V28K],-0.078
22,TYTYKLTDEEASRRAEDEWRNRGYDVRHRNNNGTWEVEVR [V28H],-0.199
23,TYTYKLTDEEASRRAEDEWRNRGYDVRWRNNNGTWEVEVR [V28W],0.13
24,TYTYKLTDEEASRRAEDEWRNRGYDVRNRNNNGTWEVEVR [V28N],-0.678
25,TYTYKLTDEEASRRAEDEWRNRGYDVRRRNNNGTWEVEVR [V28R],1.38
